Measurements as given in article PMC6706414.

Molecular target: Mimic of H2B ubiquitinated nucleosome core particle with H3K36M (ubiquitin fused to H2A R17, H2B, H3K36M, H4, 149 bp 601 DNA) (S. cerevisiae | Xenopus laevis) (UniProt P0CG63)
Test: native gel or EMSA; native PAGE; NCPs and Set2 incubated for 1 h on ice in 25 mM HEPES, pH 7.5, 50 mM NaCl, 1 mM DTT, 160 μm SAM

UniProt P0CG63, sequence (P0CG63 whole entry, looked up, the tested form may be a part): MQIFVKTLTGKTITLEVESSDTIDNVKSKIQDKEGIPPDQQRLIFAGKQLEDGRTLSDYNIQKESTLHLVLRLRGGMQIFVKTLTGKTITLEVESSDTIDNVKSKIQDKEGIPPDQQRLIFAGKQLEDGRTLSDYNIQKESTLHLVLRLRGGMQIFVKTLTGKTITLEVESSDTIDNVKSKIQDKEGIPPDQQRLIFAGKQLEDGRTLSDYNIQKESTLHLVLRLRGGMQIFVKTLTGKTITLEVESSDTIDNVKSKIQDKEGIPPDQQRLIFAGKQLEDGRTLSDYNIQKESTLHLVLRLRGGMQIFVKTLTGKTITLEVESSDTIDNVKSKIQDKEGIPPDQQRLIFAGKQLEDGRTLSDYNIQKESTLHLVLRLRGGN

“Chaetomium thermophilum Set2 methyltransferase, full-length (enzyme)” gave a percent of the NCP band shifted at twofold excess of Set2 of 50%.
